Legend:
[1] = target: SNAP25 (mouse (endogenous in mouse brain synaptosomes)) (UniProt P60879); test: affinity purification with mass spectrometry
[2] = target: SNAP25 (mouse (endogenous in mouse brain synaptosomes)) (UniProt P60879); test: co-IP

Chain of UniProt P60879 (P60879 whole entry): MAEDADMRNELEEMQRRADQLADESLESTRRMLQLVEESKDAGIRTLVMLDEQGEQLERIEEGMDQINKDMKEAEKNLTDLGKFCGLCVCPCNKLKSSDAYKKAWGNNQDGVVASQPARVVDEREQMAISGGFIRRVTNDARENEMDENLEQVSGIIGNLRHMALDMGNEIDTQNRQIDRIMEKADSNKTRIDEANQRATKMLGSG

fold increase of the interaction upon epi stimulation against the basal state [1]	amount pulled down with SNAP25 per half brain [2]	Substance
10 fold	–	Gβ1 (from UniProt P62874 1-340) (natural protein)
–	1 µg	Gβγ (from UniProt P62874 1-340; P63216 1-75) (complex)

Source: publication doi:10.1101/2020.04.29.065136
